In article PMC4705661, “Tetramerization and interdomain flexibility of the replication initiation controller YabA enables simultaneous binding to multiple partners” (Nucleic Acids Research, 2015):

Columns and labels:
[1] = molecular target: the molecule itself; assay: SEC-MALS; YabA1-58 and YabA70-119 loaded at 5 mg.ml^-1 (100 μl) on a Superdex 75 column; 50 mM Tris pH 8.0, 150 mM NaCl
[2] = molecular target: the molecule itself; assay: crystal structure; form I crystals, space group P3(2)21, 2.7 Å; 20% PEG 3350, 100 mM Bis-Tris propane pH 6.5, 200 mM potassium thiocyanate
[3] = molecular target: the molecule itself; assay: SEC-MALS; YabA loaded at 2.5 mg.ml^-1 (100 μl) on Superdex 200 HR 10/30; 50 mM Tris pH 8.0, 150 mM NaCl

B1: YabA^1–58 (domain or fragment, B. subtilis, UniProt P37542 1-58, looked up)
chain: MDKKELFDTVINLEEQIGSLYRQLGDLKQHIGEMIEENHHLQLENKHLRKRLDDTTQQ
notes: YabA, B. subtilis strain 168, residues 1-58; tag removed by HRV 3C protease; also called NTD fragment; N-terminal fragment YabA1-58; not shown: His-tag, N-terminal, cleaved
For B1, which “stoichiometry N” value [1] is on record?
The value was 4.

B2: YabA^1–62 (crystallized N-terminal domain fragment) (domain or fragment, B. subtilis, UniProt P37542 1-62, looked up)
chain: MDKKELFDTVINLEEQIGSLYRQLGDLKQHIGEMIEENHHLQLENKHLRKRLDDTTQQIEKF
notes: YabA, B. subtilis strain 168; form I crystals (2.7 Å) grew from the purified YabA/DnaN complex, form II crystals from YabA alone; two chains per asymmetric unit, tetramer by crystal symmetry; also called YabA NTD; YabA-NTD; source: E. coli BL21 (DE3), purified; fragment left by proteolysis during crystallization
For B2, which “stoichiometry N” value [2] is on record?
Its value is 4.

B3: YabA (full length, purified recombinant) (natural protein)
chain: not shown
notes: expressed from pET151/D-TOPO; also called recombinant YabA; full length YabA; source: E. coli BL21 (DE3), purified (HisTrap, TEV cleavage, Superdex 200)
B3 was tested. Which “stoichiometry N” value [3] did it give?
The value was 4.
